The record followed here is patent US20090124791A1.

Test [1] addresses B7.1/Ig fusion protein (human) (UniProt P33681). Briefly: cell-based or functional assay.
The target in test [2] is human B7.1 antigen (CD80), form not stated (human) (UniProt P33681). Briefly: surface plasmon resonance.
Test [3] concerns the target B7.1/Ig fusion protein (human) (UniProt P33681). As to the kind of experiment: competition of 125I-B7.1Ig binding to CD28 positive peripheral blood T lymphocytes.
Test [4] has as its target human B7.1 antigen (CD80) on cells (human) (UniProt P33681). Briefly: competition on B7.1 transfected CHO cells; competitor L307.4 (FIG. 8).

Sequence of B7.1/Ig fusion protein (human) (P33681 35-242): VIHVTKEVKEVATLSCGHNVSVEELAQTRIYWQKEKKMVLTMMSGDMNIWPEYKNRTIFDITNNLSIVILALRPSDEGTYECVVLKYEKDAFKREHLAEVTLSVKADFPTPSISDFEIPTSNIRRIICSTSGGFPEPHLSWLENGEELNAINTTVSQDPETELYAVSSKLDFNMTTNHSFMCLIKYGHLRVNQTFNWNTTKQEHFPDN
Sequence of human B7.1 antigen (CD80) on cells (human) (P33681 35-288): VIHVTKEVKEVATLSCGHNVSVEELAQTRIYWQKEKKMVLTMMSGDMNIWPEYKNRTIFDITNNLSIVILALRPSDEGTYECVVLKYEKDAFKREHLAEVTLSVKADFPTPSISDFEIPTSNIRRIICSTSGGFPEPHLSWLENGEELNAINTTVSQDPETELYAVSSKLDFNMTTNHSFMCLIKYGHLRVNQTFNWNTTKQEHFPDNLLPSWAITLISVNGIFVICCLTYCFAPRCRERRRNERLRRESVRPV
Sequence of human B7.1 antigen (CD80), form not stated (human) (P33681 35-242 limits assumed): as the sequence (P33681 35-242) above

Consider primatized 16C10 (IDEC-114) (antibody), for which, in test [1], the concentration for equivalent blocking of IL-2 against CTLA-4Ig, beads anti-CD3/B7 8:1 was determined as 10 fold and the inhibition of IL-2, CD4+ T cells with anti-CD3/B7-Ig beads (8:1) lay in the range of 50 to 90%. The same substance yielded a Kd in test [2] of 4 nM. The same substance registered an IC50 in test [3] of less than 1 µg/mL.
Take BB-1 murine anti-B7 antibody: the cross-reactivity (competition) with L307.4 in test [4] worked out at 50%.
